This assay concerns the target human transferrin receptor (hTfR) (human), P02786. As to the kind of experiment: SPR of naked peptide on hTfR; B = KD between 1 nM and 100 nM.

Chain of human transferrin receptor (hTfR) (human), P02786 (P02786 89-760 limits assumed): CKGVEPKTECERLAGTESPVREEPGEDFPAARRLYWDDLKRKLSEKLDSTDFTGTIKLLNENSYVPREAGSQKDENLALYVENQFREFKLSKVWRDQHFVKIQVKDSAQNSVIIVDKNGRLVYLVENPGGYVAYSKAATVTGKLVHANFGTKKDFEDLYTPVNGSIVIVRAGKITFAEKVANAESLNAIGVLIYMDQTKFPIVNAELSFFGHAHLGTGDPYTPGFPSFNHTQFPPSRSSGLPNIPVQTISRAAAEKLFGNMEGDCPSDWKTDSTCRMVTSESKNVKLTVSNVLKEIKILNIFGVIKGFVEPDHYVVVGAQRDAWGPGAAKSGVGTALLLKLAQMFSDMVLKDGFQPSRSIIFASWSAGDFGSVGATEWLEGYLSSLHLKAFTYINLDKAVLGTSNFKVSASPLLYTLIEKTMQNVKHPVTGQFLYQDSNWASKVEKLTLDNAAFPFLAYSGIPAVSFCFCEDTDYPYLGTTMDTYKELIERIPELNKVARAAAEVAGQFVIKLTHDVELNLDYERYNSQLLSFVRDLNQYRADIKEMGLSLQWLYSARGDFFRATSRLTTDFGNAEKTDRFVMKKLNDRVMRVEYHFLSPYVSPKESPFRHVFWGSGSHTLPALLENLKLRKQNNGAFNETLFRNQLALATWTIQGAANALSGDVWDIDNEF

For orientation: KD means the free concentration of one partner at which half of the binding sites on the other are occupied at equilibrium, for simple one-to-one binding. A low value points to higher affinity. AVFVWNYYIISC (modifications not checked) [naked peptide (1st to 12th amino acids) of SEQ ID NO: 14, peptide 36] gave a KD of 1 to 100 nM.

The values above are taken from patent US20240366775A1, “HUMAN TRANSFERRIN RECEPTOR BINDING ANTIBODY-PEPTIDE CONJUGATE” (PEPTIDREAM INC., priority 2021, published 2024).
